For two substances, ΔTm results are on record in paper doi:10.1101/2024.02.24.581832.

The target of this assay is N-terminal domain of MtbClpC1 (residues 1-145) (Mycobacterium tuberculosis) (UniProt P9WPC9). The experiment in a line: differential scanning fluorimetry. (In general: Differential scanning fluorimetry follows unfolding on heating by fluorescence.)
Sequence of UniProt P9WPC9 (P9WPC9 1-145): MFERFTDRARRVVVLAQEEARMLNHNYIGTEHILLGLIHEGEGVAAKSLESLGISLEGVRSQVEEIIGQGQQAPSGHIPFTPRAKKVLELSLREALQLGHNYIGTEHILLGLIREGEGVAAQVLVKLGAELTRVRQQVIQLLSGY

As for ilamycin F (peptide), the thermal shift (ΔTm) (in general, the shift of the melting midpoint relative to a reference) is 1 °C.
The result for ilamycin E (peptide) reads 3 °C.
